One data set concerns the target P05412. In words: thermal melt, homodimer (FIG. 4).
Data set [1] can be described thus: CD thermal melts, homodimer.
Another data set has as its target P16220. Briefly: thermal melt, homodimerization (FIG. 3).

B1: c-Jun (unmodified) (protein)
chain: PLSPIDMESQERIKAERKRMRNRIAASKCRKRKLERIARLEEKVKTLKAQNSELASTANMLREQVAQLKQKVMNHVNSGCQLMLTQQLQTF
As to B1, in the data set with P05412, the Tm entry is “homodimerization of unmodified c-Jun had a melting temperature of 29.4 °C”.

B2: C/EBP bZIP domain (GCN4-C/EBP chimeric protein) (protein)
chain: SEYQPSLFALNPMGFSPLDGSKSTNENVSASTSTAKPMVGQLIFDKFIKTEEDPGKAKKSVDKNSNEYRVRRERNNIAVRKSRDKAKQRNVETQQKVLELTSDNDRLRKRVEQLSRELDTLRGIFRQLPESSLVKAMGNCA
Take B2: in data set [1], the “Tm decrease in 50 mM KCl against 150 mM KCl” value was “less stable by 4 °C in 50 mM KCl compared with 150 mM KCl”.

B3: CREB (unmodified) (protein)
chain: MASSPALPTQPAEEAARKREVRLMKNREAARECRRKKKEYVKCLENRVAVLENQNKTLIEELKALKDLYCHKSD
For B3, the Tm result in the data set with P16220 is “Tm=47 °C”.

The record behind these values is patent publication US6361968.
